The source of these data is patent publication US20240218054A1 (MABLOC, published 2024).

Assay [1] deals with T1, recombinant YFV E protein (soluble E, sE; YFV Asibi strain) (Yellow fever virus, Asibi strain, UniProt Q6DV88 286-678).
T1 construct: also called YFV E antigen; YFV E monomer
The assay can be described thus: BLI monovalent (IgG on tip).

For assay [2], the target named is T2, recombinant YFV-17D DIII protein (Yellow fever virus, strain 17D, UniProt P03314 578-682).
T2 construct: also called domain III
T2 sequence: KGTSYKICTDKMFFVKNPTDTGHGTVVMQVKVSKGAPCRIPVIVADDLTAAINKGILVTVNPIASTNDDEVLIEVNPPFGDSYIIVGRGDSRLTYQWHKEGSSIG
The assay can be described thus: BLI, recombinant YFV-17D DIII protein. A general note: In BLI a coated tip is dipped into the sample, and binding shifts an interference pattern.

For orientation: Kd means the concentration at which binding is half-saturated.

T1 sequence (Q6DV88 286-678): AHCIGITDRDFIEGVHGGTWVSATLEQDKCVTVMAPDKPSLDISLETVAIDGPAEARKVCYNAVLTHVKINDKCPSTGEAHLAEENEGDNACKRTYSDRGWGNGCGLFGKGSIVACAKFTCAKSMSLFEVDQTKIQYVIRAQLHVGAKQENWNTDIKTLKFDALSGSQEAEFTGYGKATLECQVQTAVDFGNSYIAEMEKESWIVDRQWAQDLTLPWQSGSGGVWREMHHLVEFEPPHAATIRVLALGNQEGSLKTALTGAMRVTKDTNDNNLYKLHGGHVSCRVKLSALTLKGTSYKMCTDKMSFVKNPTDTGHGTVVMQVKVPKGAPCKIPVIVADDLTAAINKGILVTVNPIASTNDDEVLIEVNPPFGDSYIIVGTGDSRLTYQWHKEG

B1: ADI-42212 (antibody, V domains shown)
VH: EVQLVESGGGLVQPGGSLRLSCAASGFTFSDHYMDWVRQAPGKGLEWVGRSRNKPNSYITEYAASVKGRFTISRDDSKNSLYLQMNSLKTEDTAVYYCSRHMGFGLDLWGQGTLVTVSS
VL: SYELTQPPSVSVSPGQTATITCSGDKLGYTYTCWYQQKPGQSPVLVIYQDTKRPSGIPERFSGSNSGNTATLTITGTQAMDEADYYCQAWDTTTAGGVFGGGTKLTVL
notes: full-length IgG; also called Antibody Number 99
Regarding B1, in assay [1], the Kd was found to be 0.884 nM.

B2: ADI-42192 (antibody, V domains shown)
VH: EVQLLESGPGLVKPSQTLSLTCSVSGGSISSGGYYWTWIRQPPGKGLEWIGYIYYTGSTYYNPSLKSRVTISVDTSKNQFSLKLSSVTAADTAVYFCARAEYDTSGYYQQRLPEYFQHWGQGTLVTVSS
VL: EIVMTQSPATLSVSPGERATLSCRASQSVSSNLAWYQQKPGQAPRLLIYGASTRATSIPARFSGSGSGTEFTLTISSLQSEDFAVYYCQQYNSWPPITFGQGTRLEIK
notes: full-length IgG; also called Antibody Number 93
For B2, the Kd in assay [1] worked out at 204 nM.

B3: ADI-49147 (antibody, V domains shown)
VH: QVQLQESGGDLVQPGGSLRLSCAASGFTFSNYAMNWVRQAPGKGLEWVSAINRGGDSTYYADSVKGRFTISRDNSKNTLYLQMNSLRAEDTAVYYCAKDHGGKYGWWYFDLWGRGTLVTVSS
VL: DIRVTQSPATLSVSPGERATLSCRASQSVSSNLAWYQQKPGQAPRLLIYDASNRATGIPVRFSGSGSGTDFTLTISSLQSEDFAVYYCQQYDNWPLTFGGGTKVEIK
notes: full-length IgG; also called Antibody Number 2
For B3, in assay [2], the binding result was “binds”. Moreover, in assay [1], the Kd is 3.73 nM.

B4: ADI-49590 (antibody, V domains shown)
VH: QVQLVQSGAEVKKPGASVKVSCKASGYTFTGYYMHWVRQAPGQGLEWMGRINPNSGGTNYAQKFQGRVTMTRDTSISTAYMELSRLRSDDTAVYYCYVDYYYDSSGYYSPFDYWGQGTLVTVSS
VL: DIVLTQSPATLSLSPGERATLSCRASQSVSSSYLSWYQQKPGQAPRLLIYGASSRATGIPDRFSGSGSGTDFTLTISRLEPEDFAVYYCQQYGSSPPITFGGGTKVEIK
notes: full-length IgG; also called Antibody Number 96
For the molecule B4, the Kd in assay [1] came to 109 nM.

B5: ADI-45090 (antibody, V domains shown)
VH: EVQLVESGGGLVQPGRPLRLSCAASGFAFSSYGMHWVRQAPGKGLEWVALIRFDGTIKYYADSVKGRFTISRDNAKNTLYLQMSSLRAEDTAVYYCARDLEVGAEYLYYHYGMDVWGQGTTVTVSS
VL: QPVLTQPPSASGTPGQRVTIFCSGSRSNIGTYTINWYQKLPGTAPKLLIYSNNRGPSGVPDRFSGSQSGTSASLAISGLQPEDEADYYCAAWDDSLNGWVFGGGTKVTVL
notes: full-length IgG; also called Antibody Number 4
As for B5, the binding result in assay [2] is given as “binds”. Besides, the Kd in assay [1] was found to be 2.11 nM.

B6: ADI-45113 (antibody, V domains shown)
VH: QVQLVQSGGGLVQPGGSLRLSCAASGFTFSSYAMSWVRQAPGKGLEWVSAISGSGGSTYYADSVKGRFTISRDNSKNTLHLQMSSLRAEDTAVYYCAKDPKYSSGWWAFDYWGQGTLVTVSS
VL: EIVMTQSPATLSVSPGERATLSCRASQSVSSNLAWYQQKPGQAPRLLIYGASTRATGIPARFSGSGSGTEFTLTISSLQSEDFALYYCQQYDDWPLFGQGTRLEIK
notes: full-length IgG; also called Antibody Number 20
Regarding B6, in assay [2], the binding result is “binds”. Moreover, in assay [1], the dissociation constant (Kd) stood at 253 nM.

B7: ADI-45076 (antibody, V domains shown)
VH: EVQLVESGGGFVQPGGSLRLSCAASGFIFSDYYMDWVRQAPGKGLEWVGRIRNKPNSYTTEYAASVKGRFSISRDDLKNSLYLQMNSLKTEDTAEYYCARVDGEEVALIYWGQGALVTVSS
VL: DIQMTQSPSSLSASVGDRVTITCRASQTITRYMNWYQQKPGEAPKLLIYATSSLQSGVPSRFSGSGSGTDFTLTITNLQPADFATYYCQQSSTTRWTFGQGTKVDIK
notes: full-length IgG; also called Antibody Number 97
On to B7, for which the Kd in assay [1] stood at 0.882 nM.

B8: ADI-45161 (antibody, V domains shown)
VH: QVQLQESGGGVVQPGRSLRLSCAASGFTFSSYGMHWVRQAPGKGLEWVAVIWYDGSNKYYADSVKGRFTISRDNSKNTLYLQMNSLRAEDTAVYYCARDVGYQLLQVYGMDVWGQGTTVTVSS
VL: QSALTQPASVSGSPGQSITISCTGTSSDVGGYNYVSWYQQHPGKAPKLMIYEVSNRPSGVSNRFSGSKSGNTASLTISGLQAEDEADYYCSSYTSSSTLDVVFGGGTKLTVL
notes: full-length IgG; also called Antibody Number 92
As for B8, the Kd in assay [1] is more than 100 nM.

B9: ADI-42213 (antibody, V domains shown)
VH: EVQLLESGGGLVQPGGSLRLSCAASGFTFTYYAMSWVRQAPGKGLEWVSGISGSGDSTYNADSVKGRVTISRDNSKNTLYLQMNSLRAEDTAVYYCAKDGGYSTDWYFDLWGRGTLVTVSS
VL: EIVLTQSPGTLSLSPGERATLSCRASQSVSSSFLAWYQQKPGQAPRLLIYGASSRATGIPDRFSGSGSGTDFTLTIRRLEPEDFAVYYCQQYGSSRRTFGQGTKVEIK
notes: full-length IgG; also called Antibody Number 90
Take B9: the Kd in assay [1] was 15.2 nM.

B10: ADI-42844 (antibody, V domains shown)
VH: QVQLVESGGGVVQPGRSLRLSCTASGFTFSSYGMHWVRQAPGKGPEWVAVISYDGSKKYFADSVKGRFTISRDNSKNTLYLQMNSLRAEDTAVYSCAKGYDSNGYYYIDYWGQGTPVTVSS
VL: DIRVTQSPSTLSASVGDRVTITCRASQSISSWLAWYQQKPGKAPKLLIYRASSLESGVPSRFSGSGSGTEFTLTISSLQPDDFATYYCQQYNRYPYTFGQGTKVEIK
notes: full-length IgG; also called Antibody Number 91
Consider B10, for which, in assay [1], the Kd was 137 nM.

B11: ADI-48910 (antibody, V domains shown)
VH: EVQLVQSGGGLVQRGGSLRLSCAASGFTFSSYAMTWVRQAPGKGLEWVSDMNHSGDRTNYADSVRGRFTISRDNSKNTLYLQMNSLRAEDTAVYYCAKYYDSSGYYYFHSWGQGTLVTVSS
VL: DIRLTQSPSTLSASVGDRVSITCRASQSISDWLAWYQQKPGKAPKLLIYRASGLETGVPSRFSGSGSGTEFTLTISSLQPDDFATYYCQQYNRYPYTFGQGTKVDIK
notes: full-length IgG; also called Antibody Number 94
For B11, the Kd in assay [1] came out at 2.42 nM.

B12: ADI-48968 (antibody, V domains shown)
VH: EVQLLESGGGLGQPGGSLRLSCVASKFTFSDHYMDWVRQAPGKGLEWVGRIRNKPNGYTTEYAASVKGRFIISRDDSKNSLYLQMKSLKIEDTAIYYCVRVWGGEAARYDYWGQGALVTVSS
VL: DIRLTQSPSSLSASVGDRVTITCRASQDIRKFLNWYQQKLGKAPSLLIYGASSLQSGVPSRFSGSGSGTDFTLTISSLQPEDFAIYYCQHASTTPWTFGQGTKVEIK
notes: full-length IgG; also called Antibody Number 98
Take B12: the Kd in assay [1] is 0.963 nM.

B13: ADI-42193 (antibody, V domains shown)
VH: EVQLLESGGGLVQPGGSLRLSCAASGFIFSDHYMAWVRQAPGKGLEWVGRSRNRPNSYTTEYAASAKGRFTISRDDSKTSLYLQMNSLKTEDTAVYYCAREHGDYGLDYWGQGTLVTVSS
VL: QPVLIQPPSASGTPGQRVTISCSGSSSNFGSNFVYWYQQLPGTAPKLLIYRVNQRPSGVPDRFSGSKSGTSASLAISGLRSEDEADYYCATWDVSLSNDVLFGGGTKLTVL
notes: full-length IgG; also called Antibody Number 95
Take B13: in assay [1], the Kd was 0.922 nM.

B14: ADI-45075 (antibody, V domains shown)
VH: EVQLLESGGGLVQPGGSLRLSCAASGFTFSSYAMSWVRQAPGKGLEWVSVISDSGGSTYYADSVKGRFTISRDNSKNTLYLQMNSLRAEDTAVYYCAKDLRGVGGWYYFDYWGQGTLVTVSS
VL: EIVLTQSPSSLSASVGDRVTITCQASQDISNFLNWYQQKPGKAPKLLIYDASSLETGVPSRFSGSGSGTDFTFTISSLQPEDIATYYCQQYDNLPLTFGGGTKLEIK
notes: full-length IgG; also called Antibody Number 45
On to B14, for which, in assay [2], the binding result was “binds”. Further, the Kd in assay [1] was 26.1 nM.
